Article PMC4952014 (2015)

B1: Siglec-1 (recombinant protein used for SPR) (receptor)
chain: SWGVSSPQDVQGVKGSCLLIPCIFSFPADVEVPDGITAIWYYDYSGQRQVVSHSADPKLVEARFRGRTEFMGNPEHRVCNLLLKDLQPEDSGSYNFRFEISEVNRWSDVKGTLVTVTEEPRVPTIASPVELLEGTEVDFNCSTPYVCLQEQVRLQWQGQDPARSVTFNSQKFEPTGVGHLETLHMAMSWQDHGRILRCQLSVANHRAQSEIHLQVKYAPKGVKILLSPSGRNILPGELVTLTCQVNSSYPAVSSIKWLKDGVRLQTKTGVLHLPQAAWSDAGVYTCQAENGVGSLVSPPISLHIFMAEVQVSPAGPILENQTVTLVCNTPNEAPSDLRYSWYKNHVLLEDAHSHTLRLHLATRADTGFYFCEVQNVHGSERSGPVSVVVNHPPLTPVLTAFLETQAGLVGILHCSVVSEPLATLVLSHGGHILASTSGDSDHSPRFSGTSGPNSLRLEIRDLEETDSGEYKCSATNSLGNATSTLDFHANAARLLISPAAEVVEGQAVTLSCRSGLSPTPDARFSWYLNGALLHEGPGSSLLLPAASSTDAGSYHCRARDGHSASGPSSPAVLTVLYPPRQPTFTTRLDLDAAGAGAGRRGLLLCRVDSDPPARLQLLHKDRVVATSLPSGGGCSTCGGCSPRMKVTKAPNLLRVEIHNPLLEEEGLYLCEASNALGNASTSATFNGQATVLAIAPSHTLQEGTEANLTCNVSREAAGSPANFSWFRNGVLWAQGPLETVTLLPVARTDAALYACRILTEAGAQLSTPVLLSVLYPPDRPKLSALLDMGQGHMALFICTVDSRPLALLALFHGEHLLATSLGPQVPSHGRFQAKAEANSLKLEVRELGLGDSGSYRCEATNVLGSSNTSLFFQVRGAWVQVSPSPELQEGQAVVLSCQVHTGVPEGTSYRWYRDGQPLQESTSATLRFAAITLTQAGAYHCQAQAPGSATTSLAAPISLHVSYAPRHVTLTTLMDTGPGRLGLLLCRVDSDPPAQLRLLHGDRLVASTLQGVGGPEGSSPRLHVAVAPNTLRLEIHGAMLEDEGVYICEASNTLGQASASADFDAQAVNVQVWPGATVREGQLVNLTCLVWTTHPAQLTYTWYQDGQQRLDAHSIPLPNVTVRDATSYRCGVGPPGRAPRLSRPITLDVLYAPRNLRLTYLLESHGGQLALVLCTVDSRPPAQLALSHAGRLLASSTAASVPNTLRLELRGPQPRDEGFYSCSARSPLGQANTSLELRLEGVRVILAPEAAVPEGAPITVTCADPAAHAPTLYTWYHNGRWLQEGPAASLSFLVATRAHAGAYSCQAQDAQGTRSSRPAALQVLYAPQDAVLSSFRDSRARSMAVIQCTVDSEPPAELALSHDGKVLATSSGVHSLASGTGHVQVARNALRLQVQDVPAGDDTYVCTAQNLLGSISTIGRLQVEGARVVAEPGLDVPEGAALNLSCRLLGGPGPVGNSTFAWFWNDRRLHAEPVPTLAFTHVARAQAGMYHCLAELPTGAAASAPVMLRVLYPPKTPTMMVFVEPEGGLRGILDCRVDSEPLASLTLHLGSRLVASSQPQGAPAEPHIHVLASPNALRVDIEALRPSDQGEYICSASNVLGSASTSTYFGVRALHRLHQFQQLLWVLGLLVGLLLLLLGLGACYTWRRRRVCKQSMGENSVEMAFQKETTQLIDPDAATCETSTCAPPLG

How the values were obtained:
SF162 FD trimeric gp145 [1] = target: T1, SF162 FD trimeric gp145 (HIV-1 SF162 | bacteriophage T4, UniProt P19551); experiment: SPR; immobilized Siglec-1
SF162 FD trimeric gp145 [2] = target: T1, SF162 FD trimeric gp145; experiment: SPR; immobilized SF162 gp145
JR-FL FD trimeric gp145 [3] = target: T2, JR-FL FD trimeric gp145 (HIV-1 JR-FL | bacteriophage T4); experiment: SPR; immobilized JR-FL gp145
Soc-V1V2JR-FL (293F) = Soc-V1V2JR-FL (293F) (bacteriophage T4 | HIV-1 JR-FL); experiment: SPR; immobilized Siglec-1
JR-FL FD trimeric gp145 [4] = target: T2, JR-FL FD trimeric gp145; experiment: SPR; immobilized Siglec-1
Soc-V1V2SF162 (CHO-S) = Soc-V1V2SF162 (CHO-S) (bacteriophage T4 | HIV-1 SF162); experiment: SPR; immobilized Siglec-1
[5] = target: B1; experiment: SPR; immobilized Siglec-1

Row | Binder | Kd (SF162 FD trimeric gp145 [1]) | Kd (SF162 FD trimeric gp145 [2]) | Kd (JR-FL FD trimeric gp145 [3]) | Kd (Soc-V1V2JR-FL (293F)) | Kd (JR-FL FD trimeric gp145 [4]) | Kd (Soc-V1V2SF162 (CHO-S)) | Kd [5]
1 | B1 | 0.441 nM | 8.26 nM | 2.9 nM | 4.34 nM | 0.28 nM | 1.96 nM | 
2 | JR-FL monomeric gp120 (natural protein, N-glycosylated and sialylated (293F-expressed). Limits are not printed: start is the candidate's CHAIN start at 32, end is the residue before gp41 at 503. A vector-derived N-terminus from the CD5 leader, and a C-terminus affected by the cleavage-site change, are possible but not stated.) not shown |  |  |  |  |  |  | 4.13 nM
